Experiments:
[1] = molecular target: recombinant SARS-CoV-2 M^pro (Proteros) (SARS-CoV-2)
[2] = molecular target: recombinant SARS-CoV-2 M^pro (Proteros) (SARS-CoV-2); assay: FRET enzymatic inhibition assay

Substance | IC50 of inhibition of M^pro enzymatic activity (FRET substrate cleavage) [1] [nM] | Kd [2] [nM]
compound 57 (BOC-Gly-Phe-His aldehyde) (peptide) | 6490 | 3260
compound 58 (octanoyl-Gly-Phe-His aldehyde) (peptide) | 2370 | 1190
compound 4 (acetyl-Gly-Phe-His aldehyde, tripeptide derivative of AT1001) | 2510 | 1260

Source: article PMC9579148
